Experiments:
Experiment in all cases: MST
[1] = target: T1, NT-Als6-Ig (N′-terminal domain of C. albicans Als6 fused to the Fc domain of human IgG1) (C. albicans, UniProt Q5A2Z7 19-329)
T1 chain: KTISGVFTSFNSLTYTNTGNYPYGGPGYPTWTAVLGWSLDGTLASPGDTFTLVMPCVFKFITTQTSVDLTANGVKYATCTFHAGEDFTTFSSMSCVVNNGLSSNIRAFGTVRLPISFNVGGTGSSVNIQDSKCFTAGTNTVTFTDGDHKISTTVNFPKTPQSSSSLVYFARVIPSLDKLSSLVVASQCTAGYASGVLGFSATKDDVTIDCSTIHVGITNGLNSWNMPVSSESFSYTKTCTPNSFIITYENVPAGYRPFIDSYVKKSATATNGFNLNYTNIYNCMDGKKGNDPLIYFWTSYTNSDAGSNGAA

[2] = target: NT-Als9-2-Ig (N′-terminal domain of C. albicans Als9, allele Als9-2, fused to the Fc domain of human IgG1) (C. albicans)
[3] = target: T2, PVR-Ig (extracellular portion of human PVR fused to the Fc domain of human IgG1) (human, UniProt P15151 21-343)
T2 chain: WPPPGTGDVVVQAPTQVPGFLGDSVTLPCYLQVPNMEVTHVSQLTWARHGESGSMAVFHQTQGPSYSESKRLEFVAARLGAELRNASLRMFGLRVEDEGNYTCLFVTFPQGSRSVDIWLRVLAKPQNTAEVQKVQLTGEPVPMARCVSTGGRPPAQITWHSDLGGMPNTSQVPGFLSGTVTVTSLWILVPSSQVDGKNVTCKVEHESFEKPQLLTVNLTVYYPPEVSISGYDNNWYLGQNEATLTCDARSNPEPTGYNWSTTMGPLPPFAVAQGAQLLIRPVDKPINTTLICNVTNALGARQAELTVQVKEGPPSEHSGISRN

[4] = target: T3, NT-Als7-Ig (N′-terminal domain of C. albicans Als7 fused to the Fc domain of human IgG1) (C. albicans, UniProt Q5A312 19-329)
T3 chain: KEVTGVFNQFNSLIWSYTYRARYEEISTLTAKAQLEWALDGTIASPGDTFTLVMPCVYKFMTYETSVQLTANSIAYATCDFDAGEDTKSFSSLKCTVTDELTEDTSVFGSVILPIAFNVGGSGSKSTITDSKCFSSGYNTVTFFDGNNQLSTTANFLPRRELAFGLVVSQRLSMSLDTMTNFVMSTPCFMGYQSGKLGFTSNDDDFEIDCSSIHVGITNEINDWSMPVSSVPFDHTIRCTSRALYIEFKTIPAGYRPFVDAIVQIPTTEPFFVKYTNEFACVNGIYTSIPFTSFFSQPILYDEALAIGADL

B1: TIGIT-Ig (extracellular ligand-binding domain of human TIGIT fused to the Fc domain of human IgG1) (Fc fusion)
chain: MMTGTIETTGNISAEKGGSIILQCHLSSTTAQVTQVNWEQQDQLLAICNADLGWHISPSFKDRVAPGPGLGLTLQSLTVNDTGEYFCIYHTYPDGTYTGRIFLEVLESSVAEHGARFQIP
modifications: fluorescently labeled with the Monolith NT Protein Labeling Kit RED-NHS
In the case of B1, the Kd [1] is reported as 6 nM, the Kd [2] is reported as 455 nM and the Kd [3] is reported as 49 nM. For the same binder, the Kd [4] was 42 nM.

From PMC9072312 (2022)
